Assay results from US5503978, “Method for identification of high affinity DNA ligands of HIV-1 reverse transcriptase” (University Research Corporation).

Assays:
[1] = molecular target: T1, HIV-1 reverse transcriptase (HIV-1, UniProt P04585;P04585 P04585:588-1147,P04585:588-1027); experiment: inhibition; Ki' for RNA-dependent DNA polymerase activity; 37 C, 40 nM primer:template; conditions: tags: overexpressed in E. coli, purified per Davies et al. 1991; label: 5'-32P; long interrupted helix with AA/CG internal loop
Excerpt: A substrate for the RNA-dependent DNA polymerase activity of HIV-1 RT was assembled by annealing an 18 nucleotide, 5' end-labeled DNA primer to a 30 nucleotide RNA template with a complementary 3' end (see FIG. 10), and purifying the duplex on a 12% non-denaturing acrylamide gel. The primer sequence matched the 3' terminal 18 nucleotides of tRNA^{Lys,3}, responsible for priming minus-strand DNA synthesis of the HIV-1 genome, and the template sequence paralleled the HIV-1 genomic primer binding site and downstream 12 nucleotides. A dilution series of inhibitory ssDNA ligand (to give a final concentration of 0, 1, 3, 9, 27, or 81 nM) was denatured in HRT Buffer at 70° C. for 5 minutes and allowed to renature slowly at 20° C. The primer:template substrate was added to a final concentration of 40 nM, along with dNTP's at 400 µM. The 10 µl reaction was initiated with the addition of either HIV-1, AMV, or MMLV-RT (to give a final concentration of 10 nM), allowed to proceed for 5 minutes at 37° C., and terminated with one volume of formamide. Extension products were separated on an 8% denaturing acrylamide gel and quantitated with an Ambis radioanalytic imager. […]

[2] = molecular target: T1, HIV-1 reverse transcriptase; experiment: filter; HRT buffer, 6 mM MgCl2, 37 C; conditions: tags: overexpressed in E. coli, purified per Davies et al. 1991, label: 5'-32P
[3] = molecular target: T1, HIV-1 reverse transcriptase; experiment: inhibition; Ki' for RNA-dependent DNA polymerase activity; conditions: tags: overexpressed in E. coli, purified per Davies et al. 1991
Excerpt: A substrate for the RNA-dependent DNA polymerase activity of HIV-1 RT was assembled by annealing an 18 nucleotide, 5' end-labeled DNA primer to a 30 nucleotide RNA template with a complementary 3' end (see FIG. 10), and purifying the duplex on a 12% non-denaturing acrylamide gel. The primer sequence matched the 3' terminal 18 nucleotides of tRNA^{Lys,3}, responsible for priming minus-strand DNA synthesis of the HIV-1 genome, and the template sequence paralleled the HIV-1 genomic primer binding site and downstream 12 nucleotides. A dilution series of inhibitory ssDNA ligand (to give a final concentration of 0, 1, 3, 9, 27, or 81 nM) was denatured in HRT Buffer at 70° C. for 5 minutes and allowed to renature slowly at 20° C. The primer:template substrate was added to a final concentration of 40 nM, along with dNTP's at 400 µM. The 10 µl reaction was initiated with the addition of either HIV-1, AMV, or MMLV-RT (to give a final concentration of 10 nM), allowed to proceed for 5 minutes at 37° C., and terminated with one volume of formamide. Extension products were separated on an 8% denaturing acrylamide gel and quantitated with an Ambis radioanalytic imager.
The ability of each of the 8 isolates to inhibit the RNA-dependent DNA polymerase activity of HIV-1 RT was assayed by measuring the decrease in extension product formation from a primer:template substrate as a function of inhibitor concentration (FIGS. 10A–10E). The substrate for the inhibition assay was a DNA:RNA heteroduplex consisting of an 18 nucleotide end-labeled DNA primer identical in sequence to the 3' end of tRNA^{Lys,3} annealed to a 30 nucleotide RNA template whose sequence matches the genomic primer binding site and the first twelve transcribed nucleotides. Extension reactions were performed as described in Example 1 in the presence of 0, 81, 27, 9, 3, and 1 nM inhibitor as indicated in FIG. 10.

[4] = molecular target: T1, HIV-1 reverse transcriptase; experiment: filter; nearly as high as full-length RT1; conditions: tags: overexpressed in E. coli, purified per Davies et al. 1991
[5] = molecular target: T1, HIV-1 reverse transcriptase; experiment: competition; Kc for displacement of RT1; conditions: tags: overexpressed in E. coli, purified per Davies et al. 1991; pseudoknot
Procedure: To test this, we measured the ability of the ssDNA ligand RT1 (SEQ ID NO:71) to maintain its specific binding contacts with HIV-1 RT in the presence of high concentrations of RNA pseudoknot (see FIG. 8). […] The percent of RT1 bound in the presence of competitor relative the percent bound in the absence of competitor is plotted as a function of RNA pk concentration. […] As shown graphically in FIG. 14, when a stoichiometric equivalent of RNA pk was added, approximately one half of the complexed RT1 was displaced, and nearly all was displaced when a large excess of RNA was added. […] However, with this assay we are unable to distinguish between an interaction of both ligands at a common site or an interaction of each at different sites, with a conformational change upon binding the first that prevents subsequent binding of the second.

[6] = molecular target: T1, HIV-1 reverse transcriptase; experiment: filter; HRT buffer, 37 C; conditions: tags: overexpressed in E. coli, purified per Davies et al. 1991; pseudoknot

B1: RT1 (ssDNA)
DNA: ATCCGCCTGATTAGCGATACTCAGAAGGATAAACTGTCCAGAACTTGGAATATATCACTTGAGCAAAATCACCTGCAGGGG
Ki [1]: 0.3 nM
Kd ([2]; long interrupted helix with AA/CG internal loop): ~1 nM

B2: RT26 (ssDNA)
DNA: ATCCGCCTGATTAGCGATACTTACGTGAGCGTGCTGTCCCCTAAAGGTGATACGTCACTTGAGCAAAATCACCTGCAGGGG
Kd ([2]; intramolecular primer:template junction, AA/CG internal loop): ~1 nM
Ki ([3]; label: 5'-32P, intramolecular primer:template junction, AA/CG internal loop): 2.7 nM

B3: RT8 (ssDNA)
DNA: ATCCGCCTGATTAGCGATACTAGCCAGTCAAGTTAATGGGTGCCATGCAGAAGCAACTTGAGCAAAATCACCTGCAGGGG
Ki ([3]; label: 5'-32P, internal loop CAA opposite TAG): 13 nM

B4: RT36 (ssDNA)
DNA: ATCCGCCTGATTAGCGATACTAAGCTCTTAGTTGATGCGCGGTCAAAATTTAAGCTACTTGAGCAAAATCACCTGCAGGGG
Ki ([3]; label: 5'-32P, internal loop AA opposite A): 6.5 nM

B5: RT10 (ssDNA)
DNA: ATCCGCCTGATTAGCGATACTTATTTGCCCTTGCAGGCCGCAGGAGTGCTAGCAGTACTTGAGCAAAATCACCTGCAGGGG
Ki ([3]; label: 5'-32P, intramolecular primer:template junction (3' AGGGG paired with CCCCT)): 62 nM

B6: RT4 (ssDNA)
DNA: ATCCGCCTGATTAGCGATACTTTAGCAAAGTTGAAGCCGGACTAACAAGCTCTACGACTTGAGCAAAATCACCTGCAGGGG
Ki ([3]; label: 5'-32P, internal loop AA opposite AG): 4.1 nM

B7: RT6 (ssDNA)
DNA: ATCCGCCTGATTAGCGATACTCAGGCGTTAGGGAAGGGCGTCGAAAGCAGGGTGGGACTTGAGCAAAATCACCTGCAGGGG
Kd [2]: 5 nM
Ki ([3]; label: 5'-32P): 30 nM

ATCCGCCTGAATAGCGATACTCAGAAGGATAAACTGTCCAGAACTTGGA (ssDNA) [RT1t49]
Kd [4]: 4 nM

GGUCCGAAGUGCAACGGGAAAAUGCACU (ssRNA) [RNA pseudoknot (RNA pk)]
Ki [5]: 3 nM
Ki ([3]; pseudoknot): 4.7 nM
Kd [6]: 5 nM
